Experimental data: paper PMC7954794, “Protein context shapes the specificity of SH3 domain-mediated interactions in vivo” (Nature Communications, 2021)

How the values were obtained:
[1] = test system: ABP1; experiment: DHFR-PCA on solid medium, bait ABP1 (Fig. 1B); assay type: cell-based, Saccharomyces cerevisiae; conditions: bait ABP1, label = prey; 2-4 replicates
Description: (§1) Supplement 41467_2021_21873_MOESM8_ESM.xlsx, sheet "Fig1B" | column: medsize; medrep; Ratio; Score

[2] = test system: BBC1; experiment: DHFR-PCA on solid medium, bait BBC1 (Fig. 1B); assay type: cell-based, Saccharomyces cerevisiae; conditions: bait BBC1, label = prey
Description: as §1

[3] = test system: growth of ABP1 SH3-swapped strains in hygromycin B; conditions: cited from earlier work
Description: Having determined that multiple PPIs require SH3s, we asked whether the latter establish PPI specificity independently from their host proteins by swapping domains (Fig. 2A). Using the second round of genome editing, we individually replaced Abp1 SH3 with the 27 yeast SH3s and 3 human Abp1 orthologs’ SH3s (CTTN, HCLS1, and DBNL, Fig. 2B). The reintroduction of its own SH3 (Abp1SH3 in Abp1) reconstitutes almost perfectly Abp1’s interaction profile (Kendall’s τ = 0.93, Fig. 2B).

[4] = test system: Abp1 (1xFLAG); experiment: Western blot expression level of Abp1 SH3 mutants (Fig. S3C-D); assay type: cell-based, Saccharomyces cerevisiae
Protocol: Precultures of yeast cells expressing baits fused with the DHFR F[1,2]-FLAG were grown overnight at 30 °C with agitation in synthetic complete medium. The next day, cells were expanded in synthetic complete medium to reach their exponential phase (OD600 of around 1.0), pelleted, and frozen at −80 °C. The equivalent of fifty OD600 of cells was resuspended in ice-cold yeast lysis buffer (10 mM Tris-HCl pH 7.4, 150 mM NaCl, 0.5 mM EDTA (Millipore Sigma), 1% Triton X-100 (Millipore Sigma), and one cOmplete Mini Protease Inhibitor Cocktail (Millipore Sigma) per 10 mL) with […] glass beads (Millipore Sigma) and disrupted at 4 °C by 10 cycles of 2 min vortexing and 2 min cooldown. The equivalent of […] of lysed cells was used for the immunoprecipitation of the bait proteins using FLAG-M2 agarose beads (Millipore Sigma). The beads were incubated with the cell lysates for 120 min at 4 °C with a slow rotation, followed by three washes with the yeast lysis buffer.
Protein extracts and affinity-purified baits from yeast and human lysed cells were migrated on 10% polyacrylamide gels. The separated proteins were then transferred to nitrocellulose membranes. Validation of correct protein loading was done with ponceau staining of the membranes. Before the primary antibody incubations, membranes were blocked in 5% milk. Protein signals were detected on an Amersham Imager 600RGB (GE Healthcare) following the incubation of the membranes with the appropriate HRP-conjugated secondary antibodies and the Clarity Western ECL Substrate (Bio-Rad). The antibodies used in this study are M2-HRP (A8592, Sigma, 1/50,000), rabbit anti-FLAG (F7425, Sigma, 1/1000), PAK (SC-881, Santa Cruz, 1/200), p130cas/BCAR1 (SC-860, Santa Cruz, 1/200), actin (Cell Signaling Technology, 1/2000), anti-mouse HRP (Cell Signaling Technology, 1/10,000) and anti-rabbit HRP (Cell Signaling Technology, 1/10,000). The quantification of the WB signals was performed with the Amersham Imager 600 analysis software (GE Healthcare). […]
C, WB comparing expression levels of selected Abp1 SH3 mutants with WT Abp1. An asterisk represents a stop codon, which inhibits translation of the 1xFLAG epitope. D, Quantification of the relative level of expression of Abp1 SH3 mutants by WB as in C, (log2 of Abp1 SH3 mutant/Abp1 WT ratio, WB relative level of expression of 0 for WT Abp1) compared to their DMS scores (Hua2 (left): Pearson’s r = -0.34, p-value = 0.46, Lsb3 […]
(right): Pearson’s r = -0.81, p-value = 0.03). […]
Most […]
interface residues sensitive to mutations, such as Y7, E13, E16, V3 1, D32, D34, L48 and Y53, specifically affect Hua2 PPI. See also Supplementary Table 4.

[5] = test system: Hua2; experiment: Low-throughput liquid DHFR-PCA of selected Abp1 SH3 mutants (Fig. S3F); assay type: cell-based, Saccharomyces cerevisiae; conditions: average
Protocol: Liquid DHFR-PCA low-throughput experiments were performed to validate the PPIs identified as affected by the SH3 domain deletions in the high-throughput solid DHFR-PCA screen (256 PPIs weaker or lost and 116 PPIs stronger or gained following domain deletions). Mating and the diploid selection were performed as described for the large-scale experiment, with the exception that the plates were in 384 formats. Following the second diploid selection, diploid cells were inoculated in a 96 v-shaped well plate using a robotically manipulated 96 pin tool in a synthetic complete medium with MSG at pH 6.0 with NAT and HPH. After 48 h of growth, optical density (OD) was read using a TECAN Infinite F200 Pro, and dilutions to 1 OD in sterile nanopure water were prepared. Cells were then diluted to 0.1 OD by combining 25 µl of cell suspension at OD = 1 and 225 µl of PCA selection media without agar in a 96-wells plate. Plates were incubated at 30 °C in a TECAN Infinite M Nano and OD was monitored each 15 min for 72 h. […]
Selected non-conserved positions (E6 , E13, N15 and N27) sensitivities to mutations for the Abp1-Hua2 PPI were tested in a low -throughput liquid DHFR -PCA assay. The growth of the mutants in the low -throughput experiment (average of four replicates of the total OD for each growth curve, y axis ) is compared to the mutants DMS score (x axis). […]

[6] = test system: PPIs identified as affected by the SH3 domain deletions; experiment: Liquid DHFR-PCA low-throughput validation of PPIs affected by SH3 deletion (Fig. S1D-E); assay type: cell-based, Saccharomyces cerevisiae; conditions: Deletedscore/WTscore
Method in brief: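 Yeast diploids from DHFR-PCA mating grown 48 h in synthetic complete MSG medium pH 6.0 with NAT and HPH, normalized to 1 OD and diluted to 0.1 OD in liquid PCA selection medium. Growth followed by OD every 15 min for 72 h at 30 °C.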

B1: YBL039C (protein, UniProt P28274 1-579, looked up)
CTP synthase 1: MKYVVVSGGVISGIGKGVLASSTGMLMKTLGLKVTSIKIDPYMNIDAGTMSPLEHGECFVLDDGGETDLDLGNYERYLGVTLTKDHNITTGKIYSHVIAKERKGDYLGKTVQIVPHLTNAIQDWIERVAKIPVDDTGMEPDVCIIELGGTVGDIESAPFVEALRQFQFKVGKENFALIHVSLVPVIHGEQKTKPTQAAIKGLRSLGLVPDMIACRCSETLDKPTIDKIAMFCHVGPEQVVNVHDVNSTYHVPLLLLEQKMIDYLHARLKLDEISLTEEEKQRGLELLSKWKATTGNFDESMETVKIALVGKYTNLKDSYLSVIKALEHSSMKCRRKLDIKWVEATDLEPEAQESNKTKFHEAWNMVSTADGILIPGGFGVRGTEGMVLAARWARENHIPFLGVCLGLQIATIEFTRSVLGRKDSHSAEFYPDIDEKNHVVVFMPEIDKETMGGSMRLGLRPTFFQNETEWSQIKKLYGDVSEVHERHRHRYEINPKMVDELENNGLIFVGKDDTGKRCEILELKNHPYYIATQYHPEYTSKVLDPSKPFLGLVAASAGILQDVIEGKYDLEAGENKFNF
[1]
  medrep (log2 median colony size normalized to plate background, PCA score): 3.877
[2]; 2-4 replicates
  medrep (log2 median colony size normalized to plate background, PCA score): 2.387
[2]; only significant differences showed, PPIs completely lost have a ratio of 0.1 and the gained PPIs 2.5
  Ratio (SH3-deleted/WT medrep): 0.1

B2: ABP1: yeast SH3-containing protein; SH3-deleted (D) or gene-deleted (KO) strain (protein, UniProt P15891 2-592, looked up)
Actin-binding protein: ALEPIDYTTHSREIDAEYLKIVRGSDPDTTWLIISPNAKKEYEPESTGSSFHDFLQLFDETKVQYGLARVSPPGSDVEKIIIIGWCPDSAPLKTRASFAANFAAVANNLFKGYHVQVTARDEDDLDENELLMKISNAAGARYSIQTSSKQQGKASTPPVKKSFTPSKSPAPVSKKEPVKTPSPAPAAKISSRVNDNNDDDDWNEPELKERDFDQAPLKPNQSSYKPIGKIDLQKVIAEEKAKEDPRLVQKPTAAGSKIDPSSDIANLKNESKLKRDSEFNSFLGTTKPPSMTESSLKNDDDKVIKGFRNEKSPAQLWAERKAKQNSGNAETKAEAPKPEVPEDEPEGEPDVKDLKSKFEGLAASEKEEEEMENKFAPPPKKSEPTIISPKPFSKPQEPVKAEEAEQPKTDYKKIGNPLPGMHIEADNEEEPEENDDDWDDDEDEAAQPPLPSRNVASGAPVQKEEPEQEEIAPSLPSRNSIPAPKQEEAPEQAPEEEIEEEAEEAAPQLPSRSSAAPPPPPRRATPEKKPKENPWATAEYDYDAAEDNELTFVENDKIINIEFVDDDWWLGELEKDGSKGLFPSNYVSLGN
[3]
  Hygromycin phenotype, literature: hygromycin resistance

B3: WT (protein, UniProt P15891 2-592, looked up)
Actin-binding protein: ALEPIDYTTHSREIDAEYLKIVRGSDPDTTWLIISPNAKKEYEPESTGSSFHDFLQLFDETKVQYGLARVSPPGSDVEKIIIIGWCPDSAPLKTRASFAANFAAVANNLFKGYHVQVTARDEDDLDENELLMKISNAAGARYSIQTSSKQQGKASTPPVKKSFTPSKSPAPVSKKEPVKTPSPAPAAKISSRVNDNNDDDDWNEPELKERDFDQAPLKPNQSSYKPIGKIDLQKVIAEEKAKEDPRLVQKPTAAGSKIDPSSDIANLKNESKLKRDSEFNSFLGTTKPPSMTESSLKNDDDKVIKGFRNEKSPAQLWAERKAKQNSGNAETKAEAPKPEVPEDEPEGEPDVKDLKSKFEGLAASEKEEEEMENKFAPPPKKSEPTIISPKPFSKPQEPVKAEEAEQPKTDYKKIGNPLPGMHIEADNEEEPEENDDDWDDDEDEAAQPPLPSRNVASGAPVQKEEPEQEEIAPSLPSRNSIPAPKQEEAPEQAPEEEIEEEAEEAAPQLPSRSSAAPPPPPRRATPEKKPKENPWATAEYDYDAAEDNELTFVENDKIINIEFVDDDWWLGELEKDGSKGLFPSNYVSLGN
[4]; Western blot Flag signal of mutant relative to WT
  Ratio Mutant/WT Flag: 1
[4]; Western blot, Flag signal, 2 bands
  Flag (2 bands): 36554
[5]
  ave_au (DMS validation): 93.0274 au

B4: SHO1 (protein, UniProt P40073 1-367, looked up)
High osmolarity signaling …: MSISSKIRPTPRKPSRMATDHSFKMKKFYADPFAISSISLAIVSWVIAIGGSISSASTNESFPRFTWWGIVYQFLIICSLMLFYCFDLVDHYRIFITTSIAVAFVYNTNSATNLVYADGPKKAAASAGVILLSIINLIWILYYGGDNASPTNRWIDSFSIKGIRPSPLENSLHRARRRGNRNTTPYQNNVYNDAIRDSGYATQFDGYPQQQPSHTNYVSSTALAGFENTQPNTSEAVNLHLNTLQQRINSASNAKETNDNSNNQTNTNIGNTFDTDFSNGNTETTMGDTLGLYSDIGDDNFIYKAKALYPYDADDDDAYEISFEQNEILQVSDIEGRWWKARRANGETGIIPSNYVQLIDGPEEMHR
[6]; prey YJL128C_1
  Ratio: 0.6814
[6]; prey YOR042W_1
  Ratio: 0.502
